Data taken from the supplement of paper PMC10567573.
± gives the standard deviation.

Assay: protein stability index of a GFP-peptide fusion (GPS, HEK-293T) (PSI 1-6); higher = more stable
Details: c terminus: a fixed tail appended
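Note: 24-mer peptide tiles fused after GFP, lentivirally expressed, FACS-sorted into six equal bins by GFP/DsRed ratio, decoded by Illumina sequencing, PSI is the read-weighted mean bin number.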

Sequence | protein stability index (treatment: DMSO) | protein stability index (treatment: MLN4924 1 uM, 8 h)
PVHTTILNPHIHLMGDESACIAYI [CAMK2A] | 2.42 ± 0.17 | 2.42 ± 0.082
PVLSGAELEKAHLALIDYLTQKRS [VPS39] | 3.37 ± 0.26 | 3.38 ± 0.27
PWLRQDPMPLAPTRSHLWEAAQVV [TRIB3] | 2.5 ± 0.18 | 2.27 ± 0.29
PWNCILLTKDEAAAHLKLTSIEEG [IQUB] | 3.12 ± 0.1 | 3.44 ± 0.07
PYKCVQPDCGKAFVSRYKLMRHMA [PLAGL1] | 2.23 ± 0.31 | 2.08 ± 0.21
PYSKTLVLQTSEGKALQQYPSERE [TRIM9] | 4.63 ± 0.088 | 4.66 ± 0.21
QASAAPAAPLPERNSLSAIFNNVM [SLC29A1] | 3.55 ± 0.094 | 3.5 ± 0.14
QAVCGKCSSKRSSYPVMGFEFQVR [WDFY1] | 2.16 ± 0.23 | 2.34 ± 0.44
QAWFGFAGTPGYLSPEVLRKEAYG [CAMK2B] | 2.55 ± 0.22 | 2.76 ± 0.22
QCCQTEIIELRRTVNALEIELQAQ [KRT36] | 2.95 ± 0.49 | 2.76 ± 0.4
QDGSESFFFRHGHRGLLTMQLKSP [SPAG8] | 2.96 ± 0.3 | 3.03 ± 0.35
QDLCGVSTCDTLGMADVGTVCDPA [ADAMTS4] | 5.07 ± 0.25 | 5.25 ± 0.26
QDVDPVHNLIEQVSLGLGQPWHAV [FBXO33] | 2.75 ± 0.17 | 2.55 ± 0.18
QEALDPGPFDQGSPFAQELLDDGQ [ELF3] | 5.58 ± 0.24 | 5.32 ± 0.14
QEEEEDNRDSSMKLSFRARAYGFR [CHGA] | 4.58 ± 0.13 | 4.62 ± 0.28
QETPGPREALTRLQELCYQWLRPH [ZSCAN9] | 2.54 ± 0.12 | 2.6 ± 0.17
QFLEEINKWTVQYNVSPLSWNVAV [PTPN9] | 2.79 ± 0.82 | 2.87 ± 0.49
QGLRPRTVSSPIPYTPSPSSSRPI [CCDC6] | 4.64 ± 0.22 | 4.7 ± 0.16
QGQAKTPDSMFLAMLAVVSCASIG [CDK11A] | 3.36 ± 0.59 | 3.11 ± 0.63
QKGSHPMCKEHEDEKINIYCLTCE [TRIM63] | 4.64 ± 0.22 | 4.67 ± 0.17
QKLGSGAWDNPAYSGPPSPHGTLR [PKD2L1] | 3.79 ± 0.1 | 3.95 ± 0.31
QKLQEITRCKSSEEKKPGELKRLV [TRIM39] | 4.16 ± 0.37 | 4.21 ± 0.17

Sequence | protein stability index (treatment: DMSO) | protein stability index (treatment: MLN4924 1 uM, 8 h)
QKTLQVKCQHYKKKRTEQEETIAS [CEP70] | 4.33 ± 0.34 | 4.64 ± 0.2
QLGYLLFGTQVENFSTFIKCIFTQ [PKD2L1] | 2.83 ± 0.41 | 3.27 ± 0.55
QLKEEMARHLREYQELLNVKMALD [PRPH] | 3.32 ± 0.22 | 3.5 ± 0.36
QLMEKLREKQLSHSLRAVSTDPPH [BEX1] | 3.35 ± 0.37 | 3.27 ± 0.34
QLPRPPIVGGNKGRSGPLPPVPLG [WAS] | 3.55 ± 0.13 | 3.83 ± 0.64
QLSIERGKVLQNKQAEICQLEEKL [CCDC89] | 4.58 ± 0.4 | 4.45 ± 0.37
QMSGEPLDKLNFEAINFCRGLGSQ [ACSBG2] | 3.51 ± 0.49 | 2.89 ± 0.39
QNVHFHRSGSPTVPIKPPCIPNGK [CAMK2D] | 3.85 ± 0.26 | 4.05 ± 0.2
QPHHQPPNRAGAPGESLECPAELR [TRAF3IP2] | 5.42 ± 0.23 | 5.21 ± 0.23
QPSKSHKKVLKKMLKFLAKGEVPK [ATE1] | 2.13 ± 0.36 | 2.26 ± 0.58
QQIHVVSQFKILVSLLENNIYVHD [VPS39] | 3.08 ± 0.059 | 3.23 ± 0.28
QQTHNIEKAHECTDCGKAFLKKSQ [ZNF649] | 3.93 ± 0.3 | 4.02 ± 0.17
QRAWVRALNEQACRNGSSIQIAFE [C2CD2L] | 2.46 ± 0.34 | 2.69 ± 0.16
QREGTGKTVSLQIFSVLNSDDAAA [SMOC2] | 3.38 ± 0.24 | 3.35 ± 0.4
QRLLGEDKFQWLAGLAPPSLFARA [ANKRD9] | 2.59 ± 0.12 | 2.66 ± 0.28
QSCARAVVPSYIPLVKKHCDDSFT [CPOX] | 2.73 ± 0.2 | 2.71 ± 0.27
QSCLLVIFATKPHVLPAVLAEVAP [PYCR3] | 3.09 ± 0.75 | 3.32 ± 0.74
QSGGRLRRPVNVPLDMFSEEIKFY [KCNA1] | 2.52 ± 0.28 | 2.75 ± 0.28
QSHISDMSVILSMDNNRNLDLDSI [KRT71] | 3.87 ± 0.4 | 3.72 ± 0.35
QVHQGIKGMVLDENYNNLANAVIS [CPN1] | 2.52 ± 0.23 | 2.62 ± 0.34
QVLRNNPDALSDVGEVPYWVLEPV [ELOA2] | 2.92 ± 0.52 | 3.34 ± 0.44
QVLYEWEQGFSQSFTQEQVADIDG [CTNNB1] | 4.24 ± 0.3 | 4.09 ± 0.46

Sequence | protein stability index (treatment: DMSO) | protein stability index (treatment: MLN4924 1 uM, 8 h)
QYPAGTQGEQLEVPERLLVVLDME [SPSB2] | 3.82 ± 0.45 | 3.69 ± 0.19
RAILYPCHGMSSQLVRYSADGLLQ [GALNT9] | 2.69 ± 0.22 | 2.76 ± 0.27
RAQLHVQGLLHEAGSTDDRIVVPQ [SPNS1] | 4.15 ± 0.1 | 4.23 ± 0.22
RAYLFNSVVNVGCGPAEERVLLTG [YPEL3] | 2.72 ± 0.56 | 2.87 ± 0.71
RCKEENTIILQQLLPLRTKVAKLL [NLN] | 2.47 ± 0.25 | 2.21 ± 0.17
RCVLVFEQVRFLMKSYSFLREAVP [SOAT2] | 2.54 ± 0.42 | 2.8 ± 0.38
RDLIPPHVNFSHLTTKDYMEMYNV [SLC6A17] | 3.04 ± 0.28 | 3.23 ± 0.17
RDVKPENFLIGRQGNKKEHVIHII [CSNK1G1] | 2.26 ± 0.42 | 2.33 ± 0.21
RDYPSSRDTRDYAPPPRDYTYRDY [RBMX] | 2.87 ± 0.38 | 3.08 ± 0.35
REPALDGGFQMHYEKTPFDQLAFI [EID1] | 2.65 ± 0.33 | 2.43 ± 0.28
REQEKKPKKEANQAPKSKSGSRPR [LRRC59] | 5.41 ± 0.16 | 5.3 ± 0.23
REVEARYALQMEQLNGILLHLESE [KRT18] | 2.98 ± 0.63 | 3.16 ± 0.53
RFHYDRNPGTDAVAQTSLEEFNVL [FATE1] | 3.74 ± 0.24 | 3.78 ± 0.11
RFIHLVTGCVLGSSGKVLPKWGWE [POMT2] | 3.51 ± 1.3 | 3.15 ± 0.63
RFLANEVLQENYTHLPKADIFALA [WEE1] | 2.27 ± 0.2 | 2.33 ± 0.41
RFLDYEMQNSNECKRNFVAVYDGS [NETO1] | 2.96 ± 0.24 | 3.31 ± 0.85
RGHMPEWYTKSFGHLCAAEVVKIR [DLC1] | 2.08 ± 0.23 | 2.42 ± 0.32
RHSKGLQILGQTLKASMRELGLLI [KCNA1] | 2.96 ± 0.5 | 2.89 ± 0.15
RHWHRPVLMAVSVHSERKLLPLVT [SCNN1D] | 2.23 ± 0.37 | 2.11 ± 0.26
RITGLSPGRSALIVAVLCYINLLN [SPNS1] | 2.35 ± 0.47 | 2.14 ± 0.29
RKKQHICDECGKHFSQGSALILHQ [ZNF24] | 3.53 ± 0.21 | 3.62 ± 0.41
